Assay results as given in patent publication US12467929.

Key:
[1] = target: recombinant UBE3A protein (Homo sapiens (Human)) (UniProt Q05086); assay: 3-step Simoa; capture GTX; UBE3A 0.488 ng/ml
[2] = target: recombinant UBE3A protein (Homo sapiens (Human)) (UniProt Q05086); assay: 3-step Simoa; capture GTX; UBE3A 1.95 ng/ml
[3] = target: recombinant UBE3A protein (Homo sapiens (Human)) (UniProt Q05086); assay: Simoa; capture GTX, no helper beads; 3E5 0.4 ug/ml; UBE3A 0.00640 ng/ml
[4] = target: recombinant UBE3A protein (Homo sapiens (Human)) (UniProt Q05086); assay: 3-step Simoa, 120 min bead step; capture GTX; UBE3A 0.00640 ng/ml
[5] = target: recombinant UBE3A protein (Homo sapiens (Human)) (UniProt Q05086); assay: Simoa; capture GTX; 3E5 0.1 ug/ml; UBE3A 20.0 ng/ml
[6] = target: recombinant UBE3A protein (Homo sapiens (Human)) (UniProt Q05086); assay: Simoa; capture GTX, no helper beads; 3E5 0.2 ug/ml; UBE3A 20.0 ng/ml
[7] = target: recombinant UBE3A protein (Homo sapiens (Human)) (UniProt Q05086); assay: Simoa; capture GTX + helper beads; 3E5 0.1 ug/ml; UBE3A 0.0320 ng/ml
[8] = target: recombinant UBE3A protein (Homo sapiens (Human)) (UniProt Q05086); assay: Simoa; capture GTX; 3E5 0.8 ug/ml; UBE3A 0.0320 ng/ml
[9] = target: recombinant UBE3A protein (Homo sapiens (Human)) (UniProt Q05086); assay: Simoa head-to-head, Table 10; capture MS 2F6; UBE3A 500 ng/ml
[10] = target: recombinant UBE3A protein (Homo sapiens (Human)) (UniProt Q05086); assay: Simoa; capture GTX; SBG 75 pm; UBE3A 0.00640 ng/ml
[11] = target: recombinant UBE3A protein (Homo sapiens (Human)) (UniProt Q05086); assay: Simoa; capture GTX, no helper beads; 3E5 0.2 ug/ml; UBE3A 4.00 ng/ml
[12] = target: recombinant UBE3A protein (Homo sapiens (Human)) (UniProt Q05086); assay: Simoa; capture GTX; SBG 100 pm; UBE3A 0.160 ng/ml
[13] = target: recombinant UBE3A protein (Homo sapiens (Human)) (UniProt Q05086); assay: Simoa head-to-head, Table 11; capture GTX; UBE3A 0.16 ng/ml
[14] = target: recombinant UBE3A protein (Homo sapiens (Human)) (UniProt Q05086); assay: Simoa; capture GTX; SBG 100 pm; UBE3A 0.0320 ng/ml
[15] = target: recombinant UBE3A protein (Homo sapiens (Human)) (UniProt Q05086); assay: Simoa; capture GTX + helper beads; 3E5 0.1 ug/ml; UBE3A 0.00640 ng/ml
[16] = target: recombinant UBE3A protein (Homo sapiens (Human)) (UniProt Q05086); assay: Simoa head-to-head, Table 10; capture MS 2F6; UBE3A 0.16 ng/ml
[17] = target: recombinant UBE3A protein (Homo sapiens (Human)) (UniProt Q05086); assay: Simoa; capture GTX + helper beads; 3E5 0.4 ug/ml; UBE3A 20.0 ng/ml
[18] = target: recombinant UBE3A protein (Homo sapiens (Human)) (UniProt Q05086); assay: Simoa; capture GTX + helper beads; 3E5 0.2 ug/ml; UBE3A 0.0320 ng/ml
[19] = target: recombinant UBE3A protein (Homo sapiens (Human)) (UniProt Q05086); assay: Simoa; capture GTX; SBG 100 pm; UBE3A 20.0 ng/ml
[20] = target: recombinant UBE3A protein (Homo sapiens (Human)) (UniProt Q05086); assay: Simoa head-to-head, Table 10; capture MS 2F6; UBE3A 0.032 ng/ml

UniProt Q05086, sequence (Q05086 whole entry): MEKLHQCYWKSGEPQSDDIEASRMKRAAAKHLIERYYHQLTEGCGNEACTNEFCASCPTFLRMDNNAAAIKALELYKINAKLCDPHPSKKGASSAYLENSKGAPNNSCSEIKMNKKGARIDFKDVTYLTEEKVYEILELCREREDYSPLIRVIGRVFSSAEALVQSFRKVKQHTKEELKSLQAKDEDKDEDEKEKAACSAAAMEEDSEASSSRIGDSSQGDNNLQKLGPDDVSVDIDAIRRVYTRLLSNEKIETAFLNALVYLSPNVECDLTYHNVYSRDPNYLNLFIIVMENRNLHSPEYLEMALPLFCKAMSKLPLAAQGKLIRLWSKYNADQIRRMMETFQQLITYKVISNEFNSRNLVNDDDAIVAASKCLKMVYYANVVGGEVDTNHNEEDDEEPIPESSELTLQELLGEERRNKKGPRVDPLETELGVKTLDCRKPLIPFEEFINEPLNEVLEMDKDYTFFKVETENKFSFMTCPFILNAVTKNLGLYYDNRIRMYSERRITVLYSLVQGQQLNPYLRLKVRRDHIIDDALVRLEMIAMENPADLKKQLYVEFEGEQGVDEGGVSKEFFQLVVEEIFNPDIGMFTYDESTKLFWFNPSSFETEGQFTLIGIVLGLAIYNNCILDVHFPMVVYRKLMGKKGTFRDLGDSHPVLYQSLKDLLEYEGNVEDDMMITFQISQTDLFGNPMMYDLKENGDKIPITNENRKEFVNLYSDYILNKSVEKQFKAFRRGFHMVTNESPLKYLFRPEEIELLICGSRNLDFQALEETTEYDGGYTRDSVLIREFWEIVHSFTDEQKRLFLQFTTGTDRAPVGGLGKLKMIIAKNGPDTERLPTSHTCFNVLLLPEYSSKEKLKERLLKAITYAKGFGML

In the case of NB500-240 (Novus) (antibody), the AEB1 [1] is reported as 0.0023, the AEB2 [1] is reported as 0.0026 and the Ave AEB [1] is reported as 0.0025. The Signal to Background [1] was 0.759, the AEB1 [2] was 0.0052 and the AEB2 [2] was 0.0042. It also gave an Ave AEB [2] of 0.0047 and a Signal to Background [2] of 1.44.

“anti-UBE3A antibody 3E5 (SAB1404508-100 ug, Millipore-Sigma)” was tested, and the AEB1 [3] was 0.0228, the AEB2 [3] was 0.0232 and the Average AEB [3] was 0.023. It also gave a Signal to Background [3] of 1.18, an AEB1 [4] of 0.0054 and an AEB2 [4] of 0.0055. It also gave an Ave AEB [4] of 0.0055, a Signal to Background [4] of 3.22 and an AEB1 [5] of 5.11. For the same substance, the AEB2 [5] was 5.62, the AEB3 [5] was 5.2 and the Average AEB [5] was 5.31. It also gave a Signal to Background [5] of 276, an AEB1 [6] of 4.96 and an AEB2 [6] of 5. It also gave an Average AEB [6] of 4.98, a Signal to Background [6] of 514 and an AEB1 [7] of 0.0159. It also gave an AEB2 [7] of 0.0108, an Average AEB [7] of 0.0134 and a Signal to Background [7] of 2.33. The AEB1 [8] was 0.144, the AEB2 [8] was 0.138 and the AEB3 [8] was 0.152. The Average AEB [8] was 0.145, the Signal to Background [8] was 1.18 and the AEB1 [9] was 11. The AEB2 [9] was 10.9, the Ave AEB [9] was 10.9 and the Signal to Background [9] was 809. The AEB1 [10] was 0.0059, the AEB2 [10] was 0.0047 and the AEB3 [10] was 0.0074. The Average AEB [10] was 0.006, the Signal to Background [10] was 1.36 and the AEB1 [11] was 0.878. The AEB2 [11] was 0.851, the Average AEB [11] was 0.864 and the Signal to Background [11] was 89.4. It also gave an AEB1 [12] of 0.0582, an AEB2 [12] of 0.0586 and an AEB3 [12] of 0.0574. For the same substance, the Average AEB [12] was 0.0581, the Signal to Background [12] was 6.93 and the AEB1 [13] was 0.0288. The AEB2 [13] was 0.0291, the Ave AEB [13] was 0.0289 and the Signal to Background [13] was 3.53. The AEB1 [14] was 0.0199, the AEB2 [14] was 0.0201 and the AEB3 [14] was 0.0192. The Average AEB [14] was 0.0197, the Signal to Background [14] was 2.35 and the AEB1 [15] was 0.0065. For the same substance, the AEB2 [15] was 0.0045, the Average AEB [15] was 0.0055 and the Signal to Background [15] was 0.962. The AEB1 [16] was 0.0183, the AEB2 [16] was 0.0155 and the Ave AEB [16] was 0.0169. The Signal to Background [16] was 1.25, the AEB1 [17] was 4.41 and the AEB2 [17] was 6.45. It also gave an Average AEB [17] of 5.43, a Signal to Background [17] of 278 and an AEB1 [18] of 0.0226. For the same substance, the AEB2 [18] was 0.0236, the Average AEB [18] was 0.0231 and the Signal to Background [18] was 2.39. The AEB1 [19] was 3.96, the AEB2 [19] was 3.97 and the AEB3 [19] was 4.1. For the same substance, the Average AEB [19] was 4.01, the Signal to Background [19] was 478 and the AEB1 [20] was 0.0162. For the same substance, the AEB2 [20] was 0.0146, the Ave AEB [20] was 0.0154 and the Signal to Background [20] was 1.14.
